T1: recombinant human soluble gpNMB (recombinant human gpNMB-FLAG-His) (human, UniProt Q14956 23-498)
T1 sequence: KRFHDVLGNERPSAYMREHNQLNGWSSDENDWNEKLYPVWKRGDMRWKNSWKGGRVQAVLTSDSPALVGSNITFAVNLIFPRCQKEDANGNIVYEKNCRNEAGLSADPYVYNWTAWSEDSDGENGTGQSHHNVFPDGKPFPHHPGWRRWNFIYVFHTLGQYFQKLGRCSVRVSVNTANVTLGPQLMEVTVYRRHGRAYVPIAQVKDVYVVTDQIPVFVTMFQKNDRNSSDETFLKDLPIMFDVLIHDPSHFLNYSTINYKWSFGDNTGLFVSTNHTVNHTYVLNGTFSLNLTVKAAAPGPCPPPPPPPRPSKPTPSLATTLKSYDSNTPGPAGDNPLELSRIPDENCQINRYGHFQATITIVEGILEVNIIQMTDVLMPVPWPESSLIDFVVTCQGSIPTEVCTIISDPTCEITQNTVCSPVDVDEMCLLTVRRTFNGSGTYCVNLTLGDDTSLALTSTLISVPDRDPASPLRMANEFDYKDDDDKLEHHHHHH

B1: hGPN06-1_H1L1 VH D110A (antibody, V domains shown)
VH: QVQLVQSGAEVKKPGASVKVSCKASGYTFTDNWMGWVKQRPGQGLEWIGAIDPSDSFTNYNQNFKGRVTMTVDTSISTAYMELSRLRSDDSAVYFCTRSGYYGSPKLGGAYWGQGTLVTVSS
VL: EIVLTQSPSSLSASVGDRVTITCSASSSISYMHWYQQKSGTAPKLLIYSTSNLASGVPSRFSGSGSGTDFTFTISSLQPEDAATYYCHQWNSYPCTFGGGTKLEIK
B2: hGPN06-1_H1L1 VH P105A (antibody, V domains shown)
VH: B1 VH with P105A, A110D
VL: B1 VL
B3: hGPN06-1_H1L1 VH G109A (antibody, V domains shown)
VH: B1 VH with G109A, A110D
VL: B1 VL
B4: hGPN06-1_H1L1 VH S104A (antibody, V domains shown)
VH: B1 VH with S104A, A110D
VL: B1 VL
B5: hGPN06-1_H1L1 VH Y102A (antibody, V domains shown)
VH: B1 VH with Y102A, A110D
VL: B1 VL
B6: hGPN06-1_H1L1 VH G108A (antibody, V domains shown)
VH: B1 VH with G108A, A110D
VL: B1 VL
B7: hGPN06-1_H1L1 VH G103A (antibody, V domains shown)
VH: B1 VH with G103A, A110D
VL: B1 VL
B8: hGPN06-1_H1L1 VH S99A (antibody, V domains shown)
VH: B1 VH with S99A, A110D
VL: B1 VL
B9: hGPN06-1_H1L1 VH T97A (antibody, V domains shown)
VH: B1 VH with T97A, A110D
VL: B1 VL
B10: hGPN06-1_H1L1 VH K106A (antibody, V domains shown)
VH: B1 VH with K106A, A110D
VL: B1 VL
B11: hGPN06-1_H1L1 VH Y111A (antibody, V domains shown)
VH: B1 VH with A110D, Y111A
VL: B1 VL
B12: hGPN06-1_H1L1 VH R98A (antibody, V domains shown)
VH: B1 VH with R98A, A110D
VL: B1 VL
B13: hGPN06-1_H1L1 VH L107A (antibody, V domains shown)
VH: B1 VH with L107A, A110D
VL: B1 VL
B14: hGPN06-1_H1L1 VH Y101A (antibody, V domains shown)
VH: B1 VH with Y101A, A110D
VL: B1 VL
B15: hGPN06-1_H1L1 VH G100A (antibody, V domains shown)
VH: B1 VH with G100A, A110D
VL: B1 VL
B16: hGPN18-2_H2L3 VH Y107A (antibody, V domains shown)
VH: QVQLVQSGPGLVQPTQTLTLTCSFSGFSLSTSVMGVGWIRQPSGKGLEWLADIWWDDDKDYNPSLKSRLTISKDTSKNQVVLTMTNMDTVDTATYYCARTYYSNYEAYGMDYWGQGTLVTVSS
VL: DIVMTQSPDSLAVSLGERATINCRSSQTIILSNGNTYLEWYQQKPGQPPKLLIYKVSNRFSGVPDRFSGSGSGTDFTLTISSLQAEDVAVYYCFQGSHVPFTFGSGTKLEIKR
B17: hGPN18-2_H2L3 VH Y108A (antibody, V domains shown)
VH: B16 VH with A107Y, Y108A
VL: B16 VL
B18: hGPN18-2_H2L3 VH Y112A (antibody, V domains shown)
VH: B16 VH with A107Y, Y112A
VL: B16 VL

Positions count from the first letter of the chain named. In names and notes the source's numbering stands.

The target in one assay is T1, recombinant human soluble gpNMB …. As to the kind of experiment: antigen ELISA, vs hGPN06-1_H1L1.
As for B1, the Relative binding activity came out at 0.79.
On to B2, for which the Relative binding activity was determined as 1.09.
With B3, the Relative binding activity is 0.34.
The same measure, in the same setting: next, B4: 0.88; B5: 0.68; B6: 0.96.
On the same count and under the same terms, next, B7: 1.14; B8: 0.92.
On the same count and under the same terms, next, B9: 0.98.
Take B10: the Relative binding activity was 1.
The same measure, in the same setting: next, B11: 0.99; B12: 0.05.
As to B13, the Relative binding activity came out at 0.71.
The same measure, in the same setting: then B14, with 1.04; and B15, with 0.06.

The next assay has the same target. As to the kind of experiment: antigen ELISA. Background: An ELISA detects its analyte on a solid surface through an enzyme-linked reagent.
Usually EC50 stands for the midpoint of the concentration-response curve. For B1, the EC50 was determined as 0.956 nM.
As to B2, the EC50 came out at 1.18 nM.
For the molecule B3, the EC50 amounted to 4.89 nM.
On to B4, for which the 50% effective concentration (EC50) turned out to be 0.712 nM.
Still for that read-out and setting: then B5, with 2.21 nM.
On the same count and under the same terms, then B6, with 0.476 nM.
The same measure, in the same setting: then B7, with 0.762 nM; and B8, with 0.587 nM; and B9, with 0.36 nM.
As for B10, the EC50 was 0.441 nM.
The same measure, in the same setting: then B11, with 0.584 nM; and B12, with 53.2 nM.
Still for that read-out and setting: next, B13: 1.05 nM; B14: 0.502 nM; B15: 65.8 nM.

For a further assay the target is unchanged. The assay can be described thus: antigen ELISA, vs hGPN18-2_H2L3.
B16: the Relative binding activity was determined as 0.06.
As to B17, the Relative binding activity was determined as 0.91.
Same read-out and setting: next, B18: 1.05.

The next assay has the same target. As to the kind of experiment: antigen ELISA. This is another data set of the same source.
For the molecule B16, the EC50 was found to be 60.9 nM.
Same read-out and setting: then B17, with 4.7 nM.
On the same count and under the same terms, next, B18: 3.73 nM.
